Assay results published in the supplement of paper PMC7877785.
± gives the uncertainty stated by the source.

Test: self-splicing fitness, log relative to wild type (ln ratio); higher = more splicing; Tetrahymena group I intron in knt gene, E. coli kanamycin selection, DiMSum; sequences stand for … in CUCUCU…GGAGGGAAAAGUUAUCAGGCAUGCACCUGGUAGCUAGUCUUUAAACCAAUAGAUUGCAUCGGUUUAAAAGGCAAGACCGUCAAAUUGCGGGAAAGGGGUCAACAGCCGUUCAGUACCAAGUCUCAGGGGAAACUUUGAGAUGGCCUUGCAAAGGGUAUGGUAAUAAGCUGACGGACAUGGUCCUAACCACGCAGCCAAGUCCUAAGUCAACAGAUCUUCUGUUGAUAUGGAUGCAGUUCACAGACUAAAUGUCGGUCGGGGAAGAUGUAUUCUUCUCAUAAGAUAUAGUCGGACCUCUCCUUAAUGGGAGCUAGCGGAUGAAGUGAUGCAACACUGGAGCCGCUGGGAACUAAUUUGUAUGCGAAAGUAUAUUGAUUAGUUUUGGAGUACUCGUGGUCG
Procedure, shortened: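 Fitness was computed with DiMSum as the error-weighted combination of replicate fold changes, kanamycin versus none, each normalised to wild type. The library randomised all eight intron nucleotides of the P1ex region, with the intron placed in the knt kanamycin-resistance gene on pET-22b(+) in E. coli BL21(DE3). Six replicate transformations were grown overnight at 37°C or 30°C on LB agar with or without 25 μg/mL kanamycin, plus 100 μg/mL carbenicillin, 50 μM IPTG and 0.2% rhamnose. Pooled colonies were amplicon-sequenced on an Illumina HiSeq 2500.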

Sequence	self-splicing fitness (ln) (30 °C)	self-splicing fitness (ln) (37 °C)
AACAAGCAAUAUUACGUCCU	0.214 ± 0.064	0.0455 ± 0.074
UUACAGCAAUAUUACGAUCA	-0.398 ± 0.13	-0.133 ± 0.17
GAAAAGCAAUAUUACGAAGU	-2.98 ± 0.18	-0.976 ± 0.2
GUAUAGCAAUAUUACGCGAG	-1.31 ± 0.11	-1.47 ± 0.12
ACGGAGCAAUAUUACGUCGC	-2.93 ± 0.24	-1.42 ± 0.18
AUAAAGCAAUAUUACGCUCA	0.119 ± 0.11	-0.112 ± 0.12
CGAUAGCAAUAUUACGGCCG	-0.641 ± 0.087	-0.184 ± 0.15
AGCGAGCAAUAUUACGUAUA	-3.86 ± 0.37	-2.18 ± 0.29
AGCGAGCAAUAUUACGCGAG	-1.35 ± 0.22	-3.05 ± 0.4
CAAAAGCAAUAUUACGUCAC	-3.63 ± 0.28	-2.06 ± 0.2
GAACAGCAAUAUUACGUCUU	-0.598 ± 0.07	0.229 ± 0.089
AGGCAGCAAUAUUACGAUCG	-0.369 ± 0.077	0.135 ± 0.093
AUCCAGCAAUAUUACGCAUG	-3.68 ± 0.27	-0.669 ± 0.13
UGAUAGCAAUAUUACGCGAU	-2.6 ± 0.29	-2.65 ± 0.26
CAUUAGCAAUAUUACGCGUU	-2.44 ± 0.12	-1.48 ± 0.17
GGCAAGCAAUAUUACGCUUA	-0.449 ± 0.076	0.129 ± 0.1
CCUCAGCAAUAUUACGUGGA	-3.84 ± 0.18	-3.02 ± 0.2
AACCAGCAAUAUUACGGUAA	-0.741 ± 0.051	-0.682 ± 0.058
CGGUAGCAAUAUUACGCUCA	-0.279 ± 0.15	-0.399 ± 0.21
ACCCAGCAAUAUUACGGCCC	-0.0475 ± 0.11	-0.539 ± 0.15

Sequence	self-splicing fitness (ln) (30 °C)	self-splicing fitness (ln) (37 °C)
CAAUAGCAAUAUUACGUUUG	-2.52 ± 0.11	-1.52 ± 0.11
UAAAAGCAAUAUUACGUGAA	-1.36 ± 0.082	-1.06 ± 0.1
CACAAGCAAUAUUACGUGGA	-2.95 ± 0.11	-2.81 ± 0.13
GGGCAGCAAUAUUACGGACU	-0.562 ± 0.07	-0.255 ± 0.091
GCCGAGCAAUAUUACGCUUA	-1.21 ± 0.072	-0.233 ± 0.089
AUCUAGCAAUAUUACGGGAC	-2.44 ± 0.17	-1.03 ± 0.13
UAUGAGCAAUAUUACGGAUA	-2 ± 0.23	0.104 ± 0.21
CACUAGCAAUAUUACGGCAA	-4.1 ± 0.42	-2.08 ± 0.18
GUCAAGCAAUAUUACGGGUG	-4.19 ± 0.24	-2.73 ± 0.17
GUGUAGCAAUAUUACGAACG	-1.76 ± 0.16	-0.988 ± 0.23
AAUUAGCAAUAUUACGUACU	-0.151 ± 0.089	0.263 ± 0.13
GCAUAGCAAUAUUACGACCA	-0.207 ± 0.11	-0.544 ± 0.14
UUGCAGCAAUAUUACGGUAU	-1.86 ± 0.11	-1.63 ± 0.14
CGGUAGCAAUAUUACGGGCU	-3.22 ± 0.13	-1.82 ± 0.14
AUAAAGCAAUAUUACGGGUA	-0.752 ± 0.082	-1.06 ± 0.1
GUUUAGCAAUAUUACGCGUC	-1.79 ± 0.24	-0.647 ± 0.24
CCCGAGCAAUAUUACGAGUC	-2.67 ± 0.31	-1.69 ± 0.35
UAGAAGCAAUAUUACGGGAU	-4.15 ± 0.23	-2.36 ± 0.18
ACGCAGCAAUAUUACGGCGC	-3.39 ± 0.14	-1.63 ± 0.11
CUGAAGCAAUAUUACGAGUA	-3.67 ± 0.28	-2.63 ± 0.3

Sequence	self-splicing fitness (ln) (30 °C)	self-splicing fitness (ln) (37 °C)
GGGGAGCAAUAUUACGUCCU	-3.89 ± 0.4	–
CUCCAGCAAUAUUACGGACU	-2.61 ± 0.24	-2.07 ± 0.33
UGGCAGCAAUAUUACGUGGC	-3.92 ± 0.18	-2.72 ± 0.19
ACUUAGCAAUAUUACGCCUA	-0.829 ± 0.29	0.394 ± 0.2
GUCGAGCAAUAUUACGUGAU	-2.2 ± 0.15	-2.11 ± 0.18
AUGCAGCAAUAUUACGGACG	-1.57 ± 0.12	-0.811 ± 0.13
CGUGAGCAAUAUUACGGCGA	-2.31 ± 0.36	-0.845 ± 0.34
CGCAAGCAAUAUUACGGGUG	-1.59 ± 0.062	-0.366 ± 0.08
CAUUAGCAAUAUUACGAAAA	-2.21 ± 0.46	-1.46 ± 0.45
ACCAAGCAAUAUUACGUCCC	-2.14 ± 0.12	-0.924 ± 0.17
GUAUAGCAAUAUUACGCGCA	-1.2 ± 0.17	-0.955 ± 0.14
AUAGAGCAAUAUUACGUAGC	-3.16 ± 0.29	-2.27 ± 0.3
UAUCAGCAAUAUUACGUUUG	-1.4 ± 0.068	-0.266 ± 0.092
ACCUAGCAAUAUUACGGGCA	-0.58 ± 0.11	0.19 ± 0.13
UGGAAGCAAUAUUACGAUGC	-1.67 ± 0.25	-1.13 ± 0.31
CACAAGCAAUAUUACGGACG	-0.358 ± 0.046	0.611 ± 0.072
GUCGAGCAAUAUUACGGAGA	-2.84 ± 0.23	-2.47 ± 0.31
GAACAGCAAUAUUACGUAAC	-1.12 ± 0.082	-0.127 ± 0.1
CUUAAGCAAUAUUACGAUGG	-1.17 ± 0.082	-0.43 ± 0.11
ACAAAGCAAUAUUACGUUUC	-4.84 ± 0.24	-2.49 ± 0.16
